Among the data in the Immune Epitope Database (IEDB) are Kd and IC50 values, retold here.

Broadly, the Kd is the free concentration of one partner at which half of the binding sites on the other are occupied at equilibrium, for simple one-to-one binding. Usually IC50 stands for the midpoint of a concentration-inhibition curve. A higher IC50 goes with a need for much substance.

Where only a bound is given, the exact number is not on record here.

The target in assay [1] is HLA-A*80:01. In words: IEDB peptide-MHC binding, purified MHC/direct/fluorescence; filed as Kd, often an IC50 or EC50 that approximates it; ≥ and ≤ were set here for values at or beyond the usual limits of such assays.
In assay [2] the target is HLA-A*01:01. The description is as above.
The target of assay [3] is HLA-A*30:01. Described as above. To be noted: source organism: Bacillus cereus NVH0597-99.
The target of assay [4] is HLA-A*03:01. Described as above.
The target of assay [5] is HLA-A*11:01. Described as above. The conditions noted are these: source organism: Camelpox virus M-96.
Assay [6] deals with HLA-A*31:01. Described as above. The conditions noted are these: source organism: Camelpox virus M-96.
The target of assay [7] is HLA-A*68:02. The description is as above. To be noted: source organism: Camelpox virus M-96.
Assay [8] has as its target HLA-A*69:01. Described as above.
Assay [9] addresses HLA-B*07:02. The assay is described as above.
In assay [10] the target is HLA-B*08:02. Described as above.
The target in assay [11] is HLA-B*15:17. The assay is described as above. The conditions noted are these: source organism: Camelpox virus M-96.
Assay [12] concerns the target HLA-B*40:01. The assay is described as above.
Assay [13] deals with HLA-B*46:01. Described as above.
The target in assay [14] is HLA-B*48:01. Described as above. The conditions noted are these: source organism: Camelpox virus M-96.
Assay [15] has as its target HLA-B*58:01. Described as above.
Assay [16] addresses HLA-A*01:01. Briefly: IEDB peptide-MHC binding, purified MHC/competitive/fluorescence; filed as Kd, often an IC50 or EC50 that approximates it; ≥ and ≤ were set here for values at or beyond the usual limits of such assays. To be noted: source organism: Vaccinia virus WR.
The target of assay [17] is HLA-A*02:01. The description is as above. The conditions noted are these: source organism: Vaccinia virus WR.
Assay [18] addresses HLA-A*02:03. Described as above. To be noted: source organism: Vaccinia virus WR.
The target of assay [19] is HLA-A*02:06. The description is as above. The conditions noted are these: source organism: Vaccinia virus WR.
Assay [20] has as its target HLA-A*26:01. The description is as above. To be noted: source organism: Vaccinia virus WR.
Assay [21] addresses HLA-A*26:02. Described as above. The conditions noted are these: source organism: Vaccinia virus WR.
In assay [22] the target is HLA-A*26:03. The assay is described as above. To be noted: source organism: Vaccinia virus WR.
In assay [23] the target is HLA-B*15:01. The assay is described as above. The conditions noted are these: source organism: Vaccinia virus WR.
Assay [24] deals with HLA-B*27:05. Described as above. To be noted: source organism: Vaccinia virus WR.
For assay [25], the target named is HLA-B*35:01. The assay is described as above. To be noted: source organism: Vaccinia virus WR.
The target in assay [26] is HLA-B*57:01. The assay is described as above. To be noted: source organism: Vaccinia virus WR.
The target of assay [27] is HLA-A*30:01. In words: IEDB peptide-MHC binding, purified MHC/competitive/radioactivity; filed as Kd, often an IC50 or EC50 that approximates it; ≥ and ≤ were set here for values at or beyond the usual limits of such assays. The conditions noted are these: source organism: Vaccinia virus WR.
The target of assay [28] is HLA-A*02:01. In words: IEDB peptide-MHC binding, purified MHC/direct/fluorescence; filed as Kd, often an IC50 or EC50 that approximates it; ≥ and ≤ were set here for values at or beyond the usual limits of such assays. The conditions noted are these: source organism: Influenza A virus (A/Puerto Rico/8/34/Mount Sinai(H1N1)).
Assay [29] has as its target HLA-A*02:03. Described as above. The conditions noted are these: source organism: Influenza A virus H3N2.
For assay [30], the target named is HLA-A*02:06. Described as above. To be noted: source organism: Influenza A virus H3N2.
For assay [31], the target named is HLA-A*02:11. The description is as above. The conditions noted are these: source organism: Influenza A virus H3N2.
The target in assay [32] is HLA-A*02:12. The assay is described as above. To be noted: source organism: Influenza A virus H3N2.
Assay [33] deals with HLA-A*02:19. Described as above. To be noted: source organism: Influenza A virus H3N2.
The target in assay [34] is HLA-A*24:02. The description is as above. To be noted: source organism: Influenza A virus (A/turkey/Minnesota/1200/1980(H7N3)).
For assay [35], the target named is HLA-B*08:01. The assay is described as above. To be noted: source organism: Influenza A virus (A/turkey/Minnesota/1200/1980(H7N3)).
Assay [36] deals with HLA-B*15:01. The description is as above. To be noted: source organism: Influenza A virus (A/turkey/Minnesota/1200/1980(H7N3)).
Assay [37] concerns the target HLA-B*27:05. The description is as above. To be noted: source organism: Influenza A virus (A/turkey/Minnesota/1200/1980(H7N3)).
Assay [38] has as its target HLA-B*44:02. Described as above. To be noted: source organism: Influenza A virus (A/turkey/Minnesota/1200/1980(H7N3)).
Assay [39] deals with HLA-A*01:01. In words: IEDB peptide-MHC binding, purified MHC/competitive/fluorescence; ≥ and ≤ were set here for values at or beyond the usual limits of such assays. The conditions noted are these: source organism: Mus musculus.
Assay [40] concerns the target HLA-A*25:01. The description is as above. The conditions noted are these: source organism: Mus musculus.
Where [41] appears, read: source organism: Bacillus anthracis.
[42] abbreviates: source organism: Camelpox virus M-96.
Setting [43] is: source organism: Influenza A virus (A/turkey/Minnesota/1200/1980(H7N3)).

RVERIKSEY showed a Kd in assay [1] (source organism: Yellow fever virus) of 33.8 nM.
On to TTLRYPIGK, for which the dissociation constant Kd in assay [2] (setting [41]) is no less than 20000 nM; in [3], 81 nM; in [1] (setting [41]), no less than 20000 nM.
Turning to KVFDKSLLY, the Kd in assay [4] (setting [42]) is 35 nM; in [5], 4 nM; in assay [6] it was 2760 nM; in assay [7] it was no less than 20000 nM; in assay [8] (setting [42]), no less than 20000 nM; in assay [9] (setting [42]), no less than 20000 nM. Further, the Kd in assay [10] (source organism: Variola virus) is no less than 20000 nM; in assay [11], 2.3 nM; in [12] (setting [42]), no less than 20000 nM; in assay [13] (setting [42]), no less than 20000 nM; in assay [14] it was no less than 20000 nM; in assay [15] (source organism: Variola virus), 5 nM. Besides, the Kd is 2480 nM in [16]; no less than 20000 nM in assay [17]; no less than 20000 nM in [18]; 3100 nM in [19]; 1750 nM in assay [20]; 1990 nM in [21]. Besides, the Kd in assay [22] was no less than 20000 nM; in assay [23], 374 nM; in [24], no less than 20000 nM; in assay [25], 8.2 nM; in [26], 424 nM; in assay [27], 71 nM.
As to VTTEVAFGL, the dissociation constant Kd is no less than 20000 nM in [2] (setting [43]); 69 nM in [28]; 517 nM in [29]; no more than 1 nM in [30]; no more than 1 nM in [31]; 186 nM in assay [32]. The Kd in assay [33] is 656 nM; in assay [4] (setting [43]), no less than 20000 nM; in [34], no less than 20000 nM; in assay [8] (setting [43]), no less than 20000 nM; in assay [9] (setting [43]), no less than 20000 nM; in assay [35], no less than 20000 nM. Further, the Kd in assay [10] (source organism: Influenza A virus H3N2) was no less than 20000 nM; in assay [36] it was no less than 20000 nM; in assay [37], no less than 20000 nM; in assay [12] (source organism: Influenza A virus (A/Puerto Rico/8/34/Mount Sinai(H1N1))) it was 15000 nM; in [38], no less than 20000 nM; in [13] (setting [43]), no less than 20000 nM. The sequence further had a Kd in assay [15] (setting [43]) of 494 nM.
As to FSSCPVAY, the IC50 is 1940 nM in [39] and no less than 20000 nM in assay [40].
